# Results from the supplement of paper PMC5998384.
# Key:
# HeLa Kyoto [1] = assay: solubility change mitosis vs G1/S (difference of NP-40 vs SDS log2 ratios) (log2 ratio difference); higher = more soluble in mitosis
# HeLa Kyoto [2] = assay: solubility in G1/S (NP-40 vs SDS abundance) (log2 ratio); higher = more soluble; conditions: cell cycle stage: G1/S
# HeLa Kyoto [3] = assay: thermal stability score vs G1/S (z-score of summed log2 fold changes over temperatures); higher = more thermally stable than in G1/S
# HeLa Kyoto [4] = assay: melting temperature (median over replicates), in situ; higher = more thermally stable; conditions: cell cycle stage: mitosis
# [5] = cell cycle stage: early G1 (4.5 h after nocodazole release)
# 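Throughout, for melting temperature (median over replicates), in situ: HeLa Kyoto cells synchronized by double thymidine or nocodazole block, proteins quantified by TMT10plex mass spectrometry, three independent biological replicates.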
# 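Throughout, for solubility change mitosis vs G1/S (difference of NP-40 vs SDS log2 ratios): synchronized HeLa Kyoto cells (double thymidine block for G1/S, nocodazole release for mitosis), protein amounts in NP-40 versus SDS lysates quantified by mass spectrometry, three biological replicates.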
# 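Throughout, for solubility in G1/S (NP-40 vs SDS abundance): HeLa Kyoto cells arrested at G1/S by double thymidine block, proteins quantified by TMT10plex mass spectrometry in mild NP-40 versus SDS extracts, three biological replicates.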
# 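Throughout, for thermal stability score vs G1/S (z-score of summed log2 fold changes over temperatures): synchronized HeLa Kyoto cells, proteins quantified by TMT10plex mass spectrometry, three biological replicates, mitosis taken 0.5 h after nocodazole release, G1/S directly after double thymidine block.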
# Sequence of ERGIC3 (chain, as listed by the source): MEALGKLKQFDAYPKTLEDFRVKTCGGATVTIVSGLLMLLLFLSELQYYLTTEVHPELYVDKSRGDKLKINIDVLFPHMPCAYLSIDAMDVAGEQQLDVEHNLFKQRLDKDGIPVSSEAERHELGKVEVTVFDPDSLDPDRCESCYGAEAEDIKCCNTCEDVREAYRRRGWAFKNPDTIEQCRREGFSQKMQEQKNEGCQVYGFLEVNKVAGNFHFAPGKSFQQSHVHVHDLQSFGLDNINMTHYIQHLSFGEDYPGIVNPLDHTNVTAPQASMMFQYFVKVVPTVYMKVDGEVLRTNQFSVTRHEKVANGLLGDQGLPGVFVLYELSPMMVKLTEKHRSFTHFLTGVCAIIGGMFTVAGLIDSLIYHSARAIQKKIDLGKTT
# Sequence of CSNK1G1 (chain, as listed by the source): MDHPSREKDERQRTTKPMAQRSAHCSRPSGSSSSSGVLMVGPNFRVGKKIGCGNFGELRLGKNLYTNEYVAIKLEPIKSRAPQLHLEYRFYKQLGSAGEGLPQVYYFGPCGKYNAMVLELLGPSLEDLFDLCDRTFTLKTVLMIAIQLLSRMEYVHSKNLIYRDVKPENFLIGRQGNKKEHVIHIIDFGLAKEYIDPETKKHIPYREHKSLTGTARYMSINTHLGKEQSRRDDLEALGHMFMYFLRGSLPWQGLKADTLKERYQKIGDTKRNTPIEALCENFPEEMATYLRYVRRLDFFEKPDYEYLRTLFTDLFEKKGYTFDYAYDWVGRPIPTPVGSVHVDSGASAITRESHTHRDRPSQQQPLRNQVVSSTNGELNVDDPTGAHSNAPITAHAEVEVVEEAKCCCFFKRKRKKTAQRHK
# Sequence of CMC2 (chain, as listed by the source): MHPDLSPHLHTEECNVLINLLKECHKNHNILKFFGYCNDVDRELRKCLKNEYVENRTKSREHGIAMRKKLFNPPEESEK
# Sequence of INPP5B (chain, as listed by the source): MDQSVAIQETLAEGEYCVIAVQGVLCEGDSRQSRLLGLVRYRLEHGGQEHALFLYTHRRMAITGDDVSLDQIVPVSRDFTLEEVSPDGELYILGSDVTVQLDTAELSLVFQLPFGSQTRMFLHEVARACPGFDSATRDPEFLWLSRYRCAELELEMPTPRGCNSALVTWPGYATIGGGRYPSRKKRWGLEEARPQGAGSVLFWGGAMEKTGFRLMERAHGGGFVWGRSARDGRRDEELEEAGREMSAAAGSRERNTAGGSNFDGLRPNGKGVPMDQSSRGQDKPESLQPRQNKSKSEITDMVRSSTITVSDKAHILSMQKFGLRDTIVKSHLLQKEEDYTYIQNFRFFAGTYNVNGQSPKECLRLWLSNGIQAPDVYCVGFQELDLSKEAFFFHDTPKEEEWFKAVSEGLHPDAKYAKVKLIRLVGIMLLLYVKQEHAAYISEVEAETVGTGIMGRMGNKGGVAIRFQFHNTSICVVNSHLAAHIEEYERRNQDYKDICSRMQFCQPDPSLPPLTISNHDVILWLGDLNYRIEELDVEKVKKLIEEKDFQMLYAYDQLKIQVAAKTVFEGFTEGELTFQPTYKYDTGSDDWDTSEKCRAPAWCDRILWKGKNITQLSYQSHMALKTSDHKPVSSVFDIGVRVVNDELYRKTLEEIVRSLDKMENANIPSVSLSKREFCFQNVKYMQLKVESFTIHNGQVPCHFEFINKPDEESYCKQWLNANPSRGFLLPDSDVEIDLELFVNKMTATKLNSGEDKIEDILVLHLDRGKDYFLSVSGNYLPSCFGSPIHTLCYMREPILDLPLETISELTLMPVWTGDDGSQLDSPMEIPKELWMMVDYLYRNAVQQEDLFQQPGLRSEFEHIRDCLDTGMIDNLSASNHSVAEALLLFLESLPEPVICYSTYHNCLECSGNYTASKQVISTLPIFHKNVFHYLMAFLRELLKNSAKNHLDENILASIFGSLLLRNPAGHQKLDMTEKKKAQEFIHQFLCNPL
Substance,solubility change mitosis (log2) (HeLa Kyoto [1]),further results
ABCE1,-0.151,–
ACTR2,-0.105,–
AKR1B1,-0.0682,–
ALAS1,0.00951,solubility in G1/S (log2) (HeLa Kyoto [2]): 0.132
ASNSD1,0.0506,solubility in G1/S (log2) (HeLa Kyoto [2]): -0.0495
ATAD5,0.557,solubility in G1/S (log2) (HeLa Kyoto [2]): -1.01
ATP1A1,-0.0968,–
ATP1B1,-0.0049,–
BRD4,0.176,–
CCDC88C,-0.288,solubility in G1/S (log2) (HeLa Kyoto [2]): -0.065
CDC73,-0.0838,–
CDK5RAP2,-0.239,solubility in G1/S (log2) (HeLa Kyoto [2]): -0.157
CHD6,-0.0389,solubility in G1/S (log2) (HeLa Kyoto [2]): -0.23
CLIC1,0.0655,–
CMC2,0.0296,solubility in G1/S (log2) (HeLa Kyoto [2]): 0.229
CSNK1G1,0.0486,solubility in G1/S (log2) (HeLa Kyoto [2]): -0.3
CTSB,-0.123,–
DLG1,-0.0806,–
DNAJB5,0.00156,solubility in G1/S (log2) (HeLa Kyoto [2]): 0.153
DOPEY2,-0.106,solubility in G1/S (log2) (HeLa Kyoto [2]): -0.255
EIF6,0.0864,–
ELL2,0.0626,solubility in G1/S (log2) (HeLa Kyoto [2]): 0.0976
ERGIC3,-0.0891,thermal stability score (HeLa Kyoto [3]; [5]): -2.7; thermal stability score (HeLa Kyoto [3]; cell cycle stage: mitosis): -7.02
GFER,0.192,solubility in G1/S (log2) (HeLa Kyoto [2]): 0.733
GTPBP4,0.746,–
HAGH,0.0733,–

Substance,solubility change mitosis (log2) (HeLa Kyoto [1]),further results
HEATR5A,-0.116,solubility in G1/S (log2) (HeLa Kyoto [2]): -0.0946
HELZ2,-0.0125,solubility in G1/S (log2) (HeLa Kyoto [2]): -0.293
HMGN2,1.68,–
ICT1,0.134,–
INPP5B,-0.0113,solubility in G1/S (log2) (HeLa Kyoto [2]): -0.143
ITPA,0.0757,–
IWS1,0.062,–
KDM1A,-0.0676,–
KDM5A,0.00727,solubility in G1/S (log2) (HeLa Kyoto [2]): -0.206
KIAA0586,0.00667,solubility in G1/S (log2) (HeLa Kyoto [2]): -0.0749
KMT2B,0.243,solubility in G1/S (log2) (HeLa Kyoto [2]): -0.355
LAMTOR5,-0.0394,–
MAASSSGEKEKERLGGGLGVAGGNSTRERLLSALEDLEVLSRELIEMLAISRNQKLLQAGEENQVLELLIHRDGEFQELMKLALNQGKIHHEMQVLEKEVEKRDSDIQQLQKQLKEAEQILATAVYQAKEKLKSIEKARKGAISSEEIIKYAHRISASNAVCAPLTWVPGDPRRPYPTDLEMRSGLLGQMNNPSTNGVNGHLPGDALAAGRLPDVLAPQYPWQSNDMSMNMLPPNHSSDFLLEPPGHNKENEDDVEIMSTDSSSSSSESD [MED4],-0.0345,thermal stability score (HeLa Kyoto [3]; [5]): -1.56; thermal stability score (HeLa Kyoto [3]; cell cycle stage: mitosis): -1.18
MFSWMGRQAGGRERAGGADAVQTVTGGLRSLYLRKVLPLEEAYRFHEFHSPALEDADFENKPMILLVGQYSTGKTTFIRYLLEQDFPGMRIGPEPTTDSFIAVMYGETEGSTPGNALVVDPKKPFRKLSRFGNAFLNRFMCSQLPNQVLKSISVIDSPGILSGEKQRISRGYDFCQVLQWFAERVDRIILLFDAHKLDISDEFSEAIKAFRGQDDKIRVVLNKADQVDTQQLMRVYGALMWSLGKVINTPEVLRVYIGSFWAQPLQNTDNRRLFEAEAQDLFRDIQSLPQKAAVRKLNDLIKRARLAKVHAYIISYLKKEMPSVFGKENKKRELISRLPEIYIQLQREYQISAGDFPEVKAMQEQLENYDFTKFHSLKPKLIEAVDNMLSNKISPLMNLISQEETSTPTQLVQGGAFDGTTEGPFNQGYGEGAKEGADEEEWVVAKDKPVYDELFYTLSPINGKISGVNAKKEMVTSKLPNSVLGKIWKLADCDCDGMLDEEEFALAKHLIKIKLDGYELPSSLPPHLVPPSHRKSLPKAD [EHD4],–,solubility in G1/S (log2) (HeLa Kyoto [2]): 0.226; melting temperature (HeLa Kyoto [4]): 50.4 °C
MFYAHFVLSKRGPLAKIWLAAHWDKKLTKAHVFECNLESSVESIISPKVKMALRTSGHLLLGVVRIYHRKAKYLLADCNEAFIKIKMAFRPGVVDLPEENREAAYNAITLPEEFHDFDQPLPDLDDIDVAQQFSLNQSRVEEITMREEVGNISILQENDFGDFGMDDREIMREGSAFEDDDMLVSTTTSNLLLESEQSTSNLNEKINHLEYEDQYKDDNFGEGNDGGILDDKLISNNDGGIFDDPPALSEAGVMLPEQPAHDDMDEDDNVSMGGPDSPDSVDPVEPMPTMTDQTTLVPNEEEAFALEPIDITVKETKAKRKRKLIVDSVKELDSKTIRAQLSDYSDIVTTLDLAPPTKKLMMWKETGGVEKLFSLPAQPLWNNRLLKLFTRCLTPLVPEDLRKRRKGGEADNLDEFLKEFENPEVPREDQQQQHQQRDVIDEPIIEEPSRLQESVMEASRTNIDESAMPPPPPQGVKRKAGQIDPEPVMPPQQVEQMEIPPVELPPEEPPNICQLIPELELLPEKEKEKEKEKEDDEEEEDEDASGGDQDQEERRWNKRTQQMLHGLQRALAKTGAESISLLELCRNTNRKQAAAKFYSFLVLKKQQAIELTQEEPYSDIIATPGPRFHII [RAD21],-0.0219,thermal stability score (HeLa Kyoto [3]; [5]): -1.05; thermal stability score (HeLa Kyoto [3]; cell cycle stage: mitosis): -1.37
MGGSGSRLSKELLAEYQDLTFLTKQEILLAHRRFCELLPQEQRSVESSLRAQVPFEQILSLPELKANPFKERICRVFSTSPAKDSLSFEDFLDLLSVFSDTATPDIKSHYAFRIFDFDDDGTLNREDLSRLVNCLTGEGEDTRLSASEMKQLIDNILEESDIDRDGTINLSEFQHVISRSPDFASSFKIVL [CIB1],-0.0256,–
MPGIDKLPIEETLEDSPQTRSLLGVFEEDATAISNYMNQLYQAMHRIYDAQNELSAATHLTSKLLKEYEKQRFPLGGDDEVMSSTLQQFSKVIDELSSCHAVLSTQLADAMMFPITQFKERDLKEILTLKEVFQIASNDHDAAINRYSRLSKKRENDKVKYEVTEDVYTSRKKQHQTMMHYFCALNTLQYKKKIALLEPLLGYMQAQISFFKMGSENLNEQLEEFLANIGTSVQNVRREMDSDIETMQQTIEDLEVASDPLYVPDPDPTKFPVNRNLTRKAGYLNARNKTGLVSSTWDRQFYFTQGGNLMSQARGDVAGGLAMDIDNCSVMAVDCEDRRYCFQITSFDGKKSSILQAESKKDHEEWICTINNISKQIYLSENPEETAARVNQSALEAVTPSPSFQQRHESLRPAAGQSRPPTARTSSSGSLGSESTNLAALSLDSLVAPDTPIQFDIISPVCEDQPGQAKAFGQGGRRTNPFGESGGSTKSETEDSILHQLFIVRFLGSMEVKSDDHPDVVYETMRQILAARAIHNIFRMTESHLLVTCDCLKLIDPQTQVTRLTFPLPCVVLYATHQENKRLFGFVLRTSSGRSESNLSSVCYIFESNNEGEKICDSVGLAKQIALHAELDRRASEKQKEIERVKEKQQKELNKQKQIEKDLEEQSRLIAASSRPNQASSEGQFVVLSSSQSEESDLGEGGKKRESEA [APPL1],–,solubility in G1/S (log2) (HeLa Kyoto [2]): 0.05; melting temperature (HeLa Kyoto [4]): 50.4 °C
MRPL15,0.041,–
MRPL16,0.059,–
MRPL17,-0.0699,–
MRPL19,0.048,–
MRPL21,0.00832,–
MRPL22,-0.00907,–
MRPL38,-0.0167,–
MRPL42,0.296,–
MRPL44,-0.0742,–

Substance,solubility change mitosis (log2) (HeLa Kyoto [1]),further results
MRPL49,0.257,–
MRPL50,0.178,–
MRPL55,0.249,–
MRPL57,-0.109,–
MRPS2,0.0234,–
MRPS12,0.0958,–
MRPS18A,0.0389,–
MRPS26,0.0692,–
MRPS28,0.31,–
MRTO4,0.303,–
MSALEKSMHLGRLPSRPPLPGSGGSQSGAKMRMGPGRKRDFSPVPWSQYFESMEDVEVENETGKDTFRVYKSGSEGPVLLLLHGGGHSALSWAVFTAAIISRVQCRIVALDLRSHGETKVKNPEDLSAETMAKDVGNVVEAMYGDLPPPIMLIGHSMGGAIAVHTASSNLVPSLLGLCMIDVVEGTAMDALNSMQNFLRGRPKTFKSLENAIEWSVKSGQIRNLESARVSMVGQVKQCEGITSPEGSKSIVEGIIEEEEEDEEGSESISKRKKEDDMETKKDHPYTWRIELAKTEKYWDGWFRGLSNLFLSCPIPKLLLLAGVDRLDKDLTIGQMQGKFQMQVLPQCGHAVHEDAPDKVAEAVATFLIRHRFAEPIGGFQCVFPGC [PPME1],0.0133,thermal stability score (HeLa Kyoto [3]; [5]): -0.13; thermal stability score (HeLa Kyoto [3]; cell cycle stage: mitosis): -0.609
PACSIN3,0.0183,–
PAF1,-0.0983,–
PEX5,-0.137,–
POFUT1,-0.148,–
POLR2H,-0.00215,–
POLR2I,0.429,–
PPIA,-0.0495,–
PPP2R5C,-0.158,–
PRG4,0.251,–
PTDSS1,0.124,–
RNF167,-0.0145,–
RPL7L1,1.18,–
RPL8,0.63,–
RPL10,0.638,–
RPL10A,0.596,–

Substance,solubility change mitosis (log2) (HeLa Kyoto [1]),further results
RPL14,0.811,–
RPL17,0.699,–
RPL18A,0.618,–
RPL26,0.817,–
RPL28,0.852,–
RPL37A,0.616,–
RPLP0,0.6,–
RPS7,0.675,–
RPS17,0.529,–
RPS19,1.02,–
RPS20,0.612,–
RPS23,0.687,–
RPS24,0.772,–
RPS25,0.71,–
RPS26,0.618,–
RPSA,0.449,–
RTF1,0.0675,–
SMU1,0.423,–
SUPT5H,-0.0755,–
TMEM245,0.113,–
TPCN1,-0.0955,–
TTR,0.336,–
UNC119,-0.0626,–
WDR12,0.45,–
WDR61,-0.0946,–
YTHDC1,-0.0521,–
